Measured values reported in patent US20240024480A1 (MIE UNIVERSITY, published 2024).

Target: HLA-A24 PRAMEp301-309 pMHC complex (human)
Experiment: SPR, Biacore X100, Biotin CAPture Kit; A24 PRAMEp301-309 immobilised as ligand, scFv-pp at 31.25-500 nM, global fit

B1: #98 scFvCL-pp (scFv)
chain: QVQLVQSGAEVKKPGSSVKVSCKASGGTFSSYAISWVRQAPGQGLEWMGGIIPIFGTANYAQKFQGRVTITADESTGTAYMELSSLRSEDTAVYYCARHHSNYYYYGMDVWGQGTTVTVSRSYELTQPLSVSVALGQTARITCGGNNIGSKNVHWYQQKPGQAPVLVIYRDSNRPSGIPERFSGSNSGNTATLTISRAQAGDEADYYCQVWDSSHVFGTGTKVTVL
**Q.** How did the Kd turn out when B1 was run?
**A.** The Kd was 5.3 nM.
